According to publication PMC2913408 (Biochemistry, 2010):

Legend:
[1] = substrate: O=C(O)/C(O)=C/c1ccccc1; assay: purified protein; conditions: 10 mM potassium phosphate, pH 7.3, 24 °C
[2] = substrate: O=C(O)/C=C/C=C(\O)C(=O)O; assay: purified protein; assay type: biochemical, Chloroflexus aurantiacus; conditions: 10 mM potassium phosphate, pH 7.3, 24 °C

B1: hh4-OT (heterohexamer 4-oxalocrotonate tautomerase) (Chloroflexus aurantiacus J-10-fl) (protein)
chain 1: MLLLRITMLEGRSTEQKAELARALSAAAAAAFDVPLAEVRLIIQEVPPTHWTVGGISMAELRQQASTSTQGQ
chain 2: PMLEVFYSGDRPPDRTRKQAFAAEASAIFQRVIGTPPGRLQLIIQIVSPENTLAVIDLDRPDSDTTAEPDQQ
With B1 the Km [1] was 121 ± 20 µM, the kcat [1] was 13 s⁻¹ and the kcat/Km [1] was 110000 M⁻¹ s⁻¹. The Km [2] was 70 ± 8 µM, the kcat [2] was 3000 ± 100 s⁻¹ and the kcat/Km [2] was 4.3e+07 M⁻¹ s⁻¹.
